Measurements taken from patent US20150064134A1.

Legend:
Test in all cases: cell-based or functional assay
[1] = target: ASK1(h) (human) (UniProt Q99683)
[2] = target: CaMKIV(h) (human) (UniProt Q16566)
[3] = target: T1, LKB1(h) (human) (UniProt Q15831)
T1 sequence (looked up): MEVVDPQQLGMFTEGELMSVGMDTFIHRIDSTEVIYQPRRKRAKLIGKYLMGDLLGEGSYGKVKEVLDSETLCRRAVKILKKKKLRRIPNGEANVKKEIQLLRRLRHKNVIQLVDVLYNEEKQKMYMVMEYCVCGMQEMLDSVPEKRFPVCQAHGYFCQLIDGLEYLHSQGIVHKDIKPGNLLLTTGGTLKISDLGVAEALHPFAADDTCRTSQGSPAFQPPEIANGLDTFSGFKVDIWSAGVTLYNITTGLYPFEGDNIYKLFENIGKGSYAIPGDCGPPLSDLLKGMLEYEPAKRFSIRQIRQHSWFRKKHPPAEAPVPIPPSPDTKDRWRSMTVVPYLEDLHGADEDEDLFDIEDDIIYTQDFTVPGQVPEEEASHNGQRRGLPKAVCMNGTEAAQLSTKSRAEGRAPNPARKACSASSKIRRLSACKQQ

[4] = target: T2, NEK11(h) (human) (UniProt Q8NG66)
T2 sequence (looked up): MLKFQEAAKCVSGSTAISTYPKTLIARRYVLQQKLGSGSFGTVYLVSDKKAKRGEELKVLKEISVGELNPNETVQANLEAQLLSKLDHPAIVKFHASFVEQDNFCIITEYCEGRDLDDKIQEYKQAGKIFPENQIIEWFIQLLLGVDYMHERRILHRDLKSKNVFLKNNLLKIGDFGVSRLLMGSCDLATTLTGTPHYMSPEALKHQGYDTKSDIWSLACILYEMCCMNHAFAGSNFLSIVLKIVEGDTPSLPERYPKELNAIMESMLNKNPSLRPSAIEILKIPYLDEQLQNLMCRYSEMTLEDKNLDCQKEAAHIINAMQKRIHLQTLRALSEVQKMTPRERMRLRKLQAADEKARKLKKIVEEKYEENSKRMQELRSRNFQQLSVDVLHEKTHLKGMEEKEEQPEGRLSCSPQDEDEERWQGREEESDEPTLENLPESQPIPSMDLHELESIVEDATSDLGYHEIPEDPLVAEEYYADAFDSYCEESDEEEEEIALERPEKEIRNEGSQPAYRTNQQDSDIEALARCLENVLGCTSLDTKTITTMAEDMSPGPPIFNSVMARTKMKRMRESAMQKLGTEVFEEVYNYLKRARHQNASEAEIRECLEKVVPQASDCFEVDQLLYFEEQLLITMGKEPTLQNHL

[5] = target: MEK1(h) (human) (UniProt Q02750)
[6] = target: PKCβII(h) (human) (UniProt P05771)
[7] = target: T3, IKKα(h) (human) (UniProt O15111)
T3 sequence (looked up): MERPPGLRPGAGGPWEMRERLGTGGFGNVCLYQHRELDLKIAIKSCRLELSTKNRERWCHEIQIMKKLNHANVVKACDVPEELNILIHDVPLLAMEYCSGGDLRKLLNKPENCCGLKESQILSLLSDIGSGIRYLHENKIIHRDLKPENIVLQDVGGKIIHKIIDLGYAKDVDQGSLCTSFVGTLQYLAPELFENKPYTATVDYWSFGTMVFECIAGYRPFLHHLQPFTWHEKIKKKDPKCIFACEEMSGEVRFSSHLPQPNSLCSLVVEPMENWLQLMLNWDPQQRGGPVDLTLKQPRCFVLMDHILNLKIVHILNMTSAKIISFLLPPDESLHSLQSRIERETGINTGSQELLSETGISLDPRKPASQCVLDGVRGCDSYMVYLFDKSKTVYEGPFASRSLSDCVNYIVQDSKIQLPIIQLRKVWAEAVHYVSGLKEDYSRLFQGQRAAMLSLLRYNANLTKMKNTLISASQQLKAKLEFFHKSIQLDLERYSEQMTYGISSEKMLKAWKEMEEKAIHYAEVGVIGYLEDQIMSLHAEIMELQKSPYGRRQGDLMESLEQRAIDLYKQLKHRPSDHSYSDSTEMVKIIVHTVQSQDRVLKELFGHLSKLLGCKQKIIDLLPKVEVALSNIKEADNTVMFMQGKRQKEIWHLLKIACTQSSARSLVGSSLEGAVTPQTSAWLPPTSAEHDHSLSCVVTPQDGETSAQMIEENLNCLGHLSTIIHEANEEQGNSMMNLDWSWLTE

[8] = target: T4, GRK7(h) (human) (UniProt Q8WTQ7)
T4 sequence (looked up): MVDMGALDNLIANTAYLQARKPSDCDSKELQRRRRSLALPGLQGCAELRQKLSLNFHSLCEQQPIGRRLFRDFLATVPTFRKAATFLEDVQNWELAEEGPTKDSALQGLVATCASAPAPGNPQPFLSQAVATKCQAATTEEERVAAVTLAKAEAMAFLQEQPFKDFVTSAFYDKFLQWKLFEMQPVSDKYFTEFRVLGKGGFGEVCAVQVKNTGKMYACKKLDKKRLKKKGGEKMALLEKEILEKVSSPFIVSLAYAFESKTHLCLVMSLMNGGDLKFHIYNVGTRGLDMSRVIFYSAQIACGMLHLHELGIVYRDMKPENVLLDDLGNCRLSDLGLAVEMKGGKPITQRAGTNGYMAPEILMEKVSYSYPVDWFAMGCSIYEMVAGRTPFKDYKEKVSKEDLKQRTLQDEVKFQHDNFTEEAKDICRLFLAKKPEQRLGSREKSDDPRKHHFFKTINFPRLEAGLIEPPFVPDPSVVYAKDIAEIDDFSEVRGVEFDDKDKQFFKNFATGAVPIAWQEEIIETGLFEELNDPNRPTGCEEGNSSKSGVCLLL

[9] = target: T5, TAO2(h) (human) (UniProt Q9UL54)
T5 sequence (looked up): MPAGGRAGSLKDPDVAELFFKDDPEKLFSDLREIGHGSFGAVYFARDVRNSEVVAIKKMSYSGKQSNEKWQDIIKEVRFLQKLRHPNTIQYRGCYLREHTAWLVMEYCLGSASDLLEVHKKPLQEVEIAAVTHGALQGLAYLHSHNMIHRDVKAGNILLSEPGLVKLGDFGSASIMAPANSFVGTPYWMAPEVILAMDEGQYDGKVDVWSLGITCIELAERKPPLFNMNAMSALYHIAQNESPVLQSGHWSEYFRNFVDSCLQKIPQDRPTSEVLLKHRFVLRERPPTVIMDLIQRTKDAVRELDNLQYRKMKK

Substance	% activity at 100 µM [1]	% activity at 100 µM [2]	% activity at 100 µM [3]	% activity at 100 µM [4]	% activity at 100 µM [5]	% activity at 100 µM [6]	% activity at 100 µM [7]	% activity at 100 µM [8]	% activity at 100 µM [9]
MMI-0300 (peptide)	80%	17%	101%	53%	77%	82%	93%	122%	70%
MMI-0400 (peptide)	69%	18%	89%	33%	77%	75%	87%	100%	74%
MMI-0500 (peptide)	-4%	-1%	51%	2%	21%	3%	50%	93%	15%
